Measured values reported in article PMC3150435 (Nature structural & molecular biology, 2011).

What was measured:
[1] = target: Plasmodium vivax Duffy-Binding Protein region II (RII-PvDBP), amino acids 211-525 (Plasmodium vivax) (UniProt P22290); assay: AUC
[2] = target: Plasmodium vivax Duffy-Binding Protein region II (RII-PvDBP), amino acids 211-525 (Plasmodium vivax, UniProt P22290 211-525); assay: ITC
Chain of Plasmodium vivax Duffy-Binding Protein region II (RII-PvDBP), amino acids 211-525 (P22290 211-525): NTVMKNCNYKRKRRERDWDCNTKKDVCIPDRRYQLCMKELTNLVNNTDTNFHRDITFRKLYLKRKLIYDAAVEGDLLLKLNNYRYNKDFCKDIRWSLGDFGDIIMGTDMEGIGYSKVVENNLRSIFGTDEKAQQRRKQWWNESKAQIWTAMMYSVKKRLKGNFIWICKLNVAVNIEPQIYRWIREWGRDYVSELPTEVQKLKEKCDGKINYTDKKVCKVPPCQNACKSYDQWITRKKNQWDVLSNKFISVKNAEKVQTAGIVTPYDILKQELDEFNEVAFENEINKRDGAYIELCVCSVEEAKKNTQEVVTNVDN

Molecule “Plasmodium vivax Duffy-Binding Protein region II (RII-PvDBP), amino acids 211-525 (from UniProt P22290 211-525) (domain or fragment)” has a stoichiometry N [1] of 2.

B1: DARC1-60 (N-terminal 60 amino acids of Duffy Antigen/Receptor for Chemokines) with C4A, C51A and C54A, unsulfated (domain or fragment, UniProt Q16570 1-60, looked up)
chain: MGNALHRAELSPSTENSSQLDFEDVWNSSYGVNDSFPDGDYGANLEAAAPAHSANLLDDS
For B1, the “stoichiometry N” value [2] was 1.
